Experimental data: patent US20210261965A1

Target: Phosphatidylserine decarboxylase (PSD/PISD), purified
Assay: microscale thermophoresis (MST), fluorescently labeled purified SMAC, Monolith-NT115

Sequence of Phosphatidylserine decarboxylase (PSD/PISD), purified (B1AKM7 whole entry): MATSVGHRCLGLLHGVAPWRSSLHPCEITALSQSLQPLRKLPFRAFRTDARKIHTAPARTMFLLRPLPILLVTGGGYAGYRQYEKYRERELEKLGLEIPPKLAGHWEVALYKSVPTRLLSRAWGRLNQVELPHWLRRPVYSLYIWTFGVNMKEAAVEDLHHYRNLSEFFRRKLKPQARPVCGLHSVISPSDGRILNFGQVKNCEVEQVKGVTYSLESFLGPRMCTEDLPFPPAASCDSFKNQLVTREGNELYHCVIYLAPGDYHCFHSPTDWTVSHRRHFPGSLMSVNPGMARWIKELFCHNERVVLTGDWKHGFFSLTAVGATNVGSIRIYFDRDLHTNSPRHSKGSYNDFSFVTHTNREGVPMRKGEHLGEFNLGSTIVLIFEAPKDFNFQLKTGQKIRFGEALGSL

Kd: 100 nM
Substance: purified SMAC/Diablo (second mitochondria-derived activator of caspase/direct inhibitor of apoptosis-binding protein with low pI) (from UniProt Q9NR28 56-239)
